From PMC10816986, “The Role of Key Amino Acids of the Human Fe(II)/2OG-Dependent Dioxygenase ALKBH3 in Structural Dynamics and Repair Activity toward Methylated DNA” (International Journal of Molecular Sciences, 2024)
Positions count from the first letter of the chain named. Names and notes keep the numbering of the source. Values joined by “and” are separate entries in the source; they are usually repeats but may differ in a detail not shown here. Equal entries are not always repeated.

B1: L177A ALKBH3: ALKBH3 mutant, Leu177 replaced with Ala (protein, UniProt Q96Q83 1-286, looked up, variant L177A)
Alpha-ketoglutarate-dependent …: MEEKRRRARVQGAWAAPVKSQAIAQPATTAKSHLHQKPGQTWKNKEHHLSDREFVFKEPQQVVRRAPEPRVIDREGVYEISLSPTGVSRVCLYPGFVDVKEADWILEQLCQDVPWKQRTGIREDITYQQPRLTAWYGELPYTYSRITMEPNPHWHPVLRTLKNRIEENTGHTFNSLACNLYRNEKDSVDWHSDDEPSLGRCPIIASLSFGATRTFEMRKKPPPEENGDYTYVERVKIPLDHGTLLIMEGATQADWQHRVPKEYHSREPRVNLTFRTVYPDPRGAPW
B2: Y143F ALKBH3: ALKBH3 mutant, Tyr143 replaced with Phe (protein, UniProt Q96Q83 1-286, looked up, variant Y143F)
Alpha-ketoglutarate-dependent …: B1 Alpha-ketoglutarate-dependent … with Y143F, A177L
B3: wt ALKBH3: wild-type human Fe(II)/2OG-dependent dioxygenase ALKBH3 with N-terminal His-tag, expressed in E. coli (protein, UniProt Q96Q83 1-286, looked up)
Alpha-ketoglutarate-dependent …: B1 Alpha-ketoglutarate-dependent … with A177L
modifications: N-terminal His-tag
notes: wild-type human Fe(II)/2OG-dependent dioxygenase ALKBH3 with N-terminal His-tag, expressed in E. coli
B4: Y143A ALKBH3: ALKBH3 mutant, Tyr143 replaced with Ala (protein, UniProt Q96Q83 1-286, looked up, variant Y143A)
Alpha-ketoglutarate-dependent …: B1 Alpha-ketoglutarate-dependent … with Y143A, A177L
B5: H191A ALKBH3: ALKBH3 mutant, His191 replaced with Ala (protein, UniProt Q96Q83 1-286, looked up, variant H191A)
Alpha-ketoglutarate-dependent …: B1 Alpha-ketoglutarate-dependent … with A177L, H191A

test system: not listed separately; experiment: Thermal denaturation followed by CD spectroscopy; assay type: physicochemical; details: not given
Protocol: The effect of substitutions of conserved amino acids in the active site of ALKBH3 on its thermal stability was studied by circular dichroism (CD) spectroscopy combined with thermal denaturation of the samples. The CD data were collected for wt and mutant apoproteins at various temperatures (25–70 °C) with 2–5 °C intervals (Supplementary Figure S3). […] Melting profiles expressed as a temperature dependence of the mean residue ellipticity at 218 nm were largely sigmodal, indicating the presence of a single transition between the folded and unfolded state (Figure 6B).
The melting profiles were analyzed quantitatively using characteristic wavelengths between 208 and 222 nm by a single-stage model.
Thermal stability experiments were performed under the same conditions. The spectra were collected from 25 to 70 °C, with the samples incubated at each temperature for 3–5 min before measuring. After that, each sample was gradually cooled to 25 °C and the spectrum was recorded again to observe possible refolding of the protein. Melting curves were corrected for background, transformed to the mean residue ellipticity units, and smoothed using the Savitzky–Golay method with a polynomial order of 3. Values of [θ] at wavelengths of 208 and 218 nm as a function of temperature were used to determine the thermodynamics of folding. The values of Tm and ΔH were determined by non-linear regression analysis with the help of Equations (6)–(8):(6) θt=θu+θf−θuK/1+K, (7) K=exp(ΔH/1.987·tt/Tm−1)=exp(−ΔH−t·ΔS/1.987·t), (8) ΔG=−RTlnK where θt—the mean residue ellipticity (in deg·cm^2·dmol^−1) at any given temperature t; θu—the mean residue ellipticity of the unfolded protein; θf—the mean residue ellipticity of the folded protein; K—the constant of unfolding; Tm—the melting temperature; ΔH—the enthalpy of unfolding, ΔS—the entropy of unfolding.
Figure 6 Thermal stability of wt and mutant ALKBH3 proteins measured by CD spectroscopy. (A) Spectra of wt ALKBH3 between 180 and 270 nm at 25 °C (light blue), after heating to 70 °C (dark blue), and cooling again to 25 °C (dashed light blue). (B) Representative melting profiles of wt (blue), Y143F (yellow), Y143A (green), L177A (red), and H191A ALKBH3 (violet) derived from the θ values at 218 nm. The unfolding transitions were monitored 0.2 mg/mL of the apoprotein in 10 mM Potassium Phosphate (pH 7.8) and 50 mM (NH4)2SO4.

Row | Molecule | reduction in melting temperature relative to wt [°C] | increase in ΔH relative to wt [kcal/mol] | increase in ΔS relative to wt [cal/mol·K]
1 | B1 | 1.1 |  | 
2 | B2 | 2.1 | 32 | 103

same assay, conditions: apoprotein 0.2 mg/mL, 10 mM potassium phosphate pH 7.8, 50 mM (NH4)2SO4

Row | Molecule | Tm
3 | B3 | 45.5 °C and 45.6 °C
4 | B1 | 44.5 ± 0.6 °C
5 | B4 | 44.2 ± 0.2 °C
6 | B2 | 43.5 ± 0.4 °C
7 | B5 | 42.7 ± 0.1 °C

same assay, conditions: apoprotein 0.2 mg/mL, 10 mM potassium phosphate pH 7.8, 50 mM (NH4)2SO4; listed as wt

Row | Molecule | Tm [°C]
8 | B3 | 45.6 ± 0.7

same assay, conditions: apoprotein, single-stage model

Row | Molecule | ΔH (enthalpy of unfolding) [kcal/mol] | ΔS (entropy of unfolding)
9 | B3 | 42 | 133 ± 2 cal/mol·K
10 | B1 | 79 ± 5 | 249 ± 1.3 cal/mol·K
11 | B4 | 54 ± 2 | 170 ± 0.6 cal/mol·K
12 | B2 | 75 ± 5 | 236 ± 3 cal/mol·K
13 | B5 | 127 ± 9 | 403 cal/mol·K and 403 ± 0.4 cal/mol·K

same assay, conditions: apoprotein, single-stage model; listed as wt

Row | Molecule | ΔH (enthalpy of unfolding) [kcal/mol]
14 | B3 | 43 ± 1

same assay, conditions: calculated from ΔH and ΔS at 298 K

Row | Molecule | ΔG^298 [kcal/mol]
15 | B3 | 3.4 ± 0.1
16 | B1 | 4.8 ± 0.4
17 | B4 | 3.3 ± 0.1
18 | B2 | 4.7 ± 0.3
19 | B5 | 6.9 ± 0.5

biological target: m3C substrate; experiment: Equilibrium fluorescence titration with methylated DNA; assay type: binding; details: 1 µM apoprotein, 2 mM EDTA, 25 °C; read-out: Dissociation constant Kd, m3C substrate
Description: (§1) To investigate the impact of selected mutations on ALKBH3’s ability to bind its cofactor, co-substrate, and methylated DNA, the fluorescent titration method was employed. It is well-established that enzyme–ligand binding typically leads to a protein conformational change, which in turn can alter the fluorescence intensity of tryptophan and tyrosine residues within the protein sequence. […] In this study, transitional metals (Fe(II), Ni(II), and Co(II)), 2OG, and the m3C substrate served as titrants. Protein fluorescence quenching was measured after the addition of an excess of the ligand to 1 µM of enzyme (Supplementary Figure S2). To determine the equilibrium dissociation constant’s Kd values, the resulting titration curves were analyzed using a non-linear regression algorithm (see Section 4.3 of “Materials and Methods” for details). […] As indicated by the data presented in Table 2, the stability of the wt ALKBH3 apoenzyme’s affinity to various ligands and damaged DNA generally corresponds to the stability of such complexes for AlkB and ALKBH2 enzymes. […] The binding of Ni(II) and Co(II) ions of similar radii was weakened by approximately two-fold. […] This behavior is more characteristic of the bacterial homolog AlkB rather than human ALKBH2 [7].
The affinity of the active site of ALKBH3 for methylated DNA was studied using the m3C substrate without fluorescent labels (see Section 4). […] The replacement of key amino acids leads to an approximate 1.4-fold weakening of contacts with the DNA substrate for the Y143F mutant, 2.3-fold for Y143A, 2-fold for L177A, and 1.5-fold for H191A. Therefore, the removal of the bulky side chain of Tyr143 dramatically affects the ability of ALKBH3 to bind damaged DNA, while withdrawal of its OH group only slightly weakens protein–DNA interactions.
(§2) The intrinsic tryptophan fluorescence quenching was monitored at the maximum of emission (345 nm, in most cases) using an excitation wavelength of 280 nm, and 5 nm slits. An amount of 2 mM of (NH4)2Fe(SO4)2·6H2O, 2 mM of NiSO4×7H2O, 2 mM of CoSO4·7H2O, 2 mM of 2OG, or 100 µM of m3C substrate was titrated into 1 µM of apoprotein (a free enzyme with no metal or 2OG added) in the presence of 50 mM of HEPES-KOH (pH 7.8), 50 mM of KCl, and 10 mM of MgCl2. When titrating with DNA, the buffer was supplemented with 2 mM of EDTA. The dissociation constant Kd for a model of one-step binding (E + L ↔ EL) was determined using Equations (2)–(5) and a non-linear regression algorithm in the OriginPro 8.1 software (OriginLab Corp., Northampton, MA, USA):(2) Kd=E[L]/[EL] (3) F=f0+f1E+f2[EL] (4) e0=E+[EL] (5) l0=L+[EL] where F is the observed fluorescence intensity at any given ligand (L) concentration; f0 is the background fluorescence; f1 and f2 are partial fluorescence intensities of the free enzyme (E) and enzyme–ligand complex (EL), respectively; e0 and l0 are total concentrations of the enzyme and ligand.
(§3) Figure S2. Equilibrium binding of the wild-type and mutant ALKBH3 proteins to transition metals, 2OG, or m3C-containing DNA. The quenching of the enzyme ﬂuorescence is shown as a function of Fe(II) (A), Ni(II) (B), Co(II) (C), 2OG ( D), and single-stranded m3C substrate (E). The protein concentration was 1 µM. In the course of titration by Fe(II), a sodium ascorbate (1mM) was added to keep the metal in a reduced state. Experimental data points were ﬁtted to a single-site binding mode l (see “Materials and Methods”). Each trace represents the average of three technical […]
(§4) (1 picture or pasted object on this page, not shown here)

Row | Molecule | Kd [µM]
20 | B3 | 2.8 ± 0.1
21 | B1 | 5.7 ± 0.3
22 | B4 | 6.3 ± 0.6
23 | B2 | 3.8 ± 0.5
24 | B5 | 4.3 ± 0.3

same assay, conditions: ratio of Kd for m3C substrate

Row | Molecule | weakening of contacts with the DNA substrate relative to wt [fold]
25 | B1 | ~2
26 | B4 | ~2.3
27 | B2 | ~1.4
28 | B5 | ~1.5

biological target: not listed separately; experiment: Equilibrium fluorescence titration with Ni(II); assay type: binding; details: 1 µM apoprotein, 25 °C; read-out: Dissociation constant Kd, Ni(II)
Description: as §1, §2, §3, §4

Row | Molecule | Kd [µM]
29 | B3 | 42 ± 4
30 | B1 | 90 ± 10
31 | B4 | 60 ± 7
32 | B2 | 42 ± 3
33 | B5 | 50 ± 4
